{
  "source": "paper PMC2995291",
  "key": {"[1]": {"target": "human ubiquitin with noncleavable N-terminal (His)6 tag (human) (UniProt P0CG48)", "assay": "ITC"}, "[2]": {"target": "human ubiquitin with noncleavable N-terminal (His)6 tag (human) (UniProt P0CG48)", "assay": "ITC", "remark": "listed apart in the source"}},
  "note": "pKd: −log10 of the molar value. Like-named read-outs stand apart in the source and are kept apart here.",
  "data": [
    {"substance": "human Polι UBM2 (residues 674–715) (domain or fragment)", "values": [
      {"measurement": "pKd", "setting": "[1]", "result": 4.64}
    ]},
    {"substance": "human Polι UBM2 (residues 679–707) (domain or fragment)", "values": [
      {"measurement": "pKd", "setting": "[1]", "result": 4.63},
      {"measurement": "pKd", "setting": "[2]", "result": 4.62},
      {"measurement": "dH (kcal · mol^−1)", "setting": "[2]", "result": 4.5},
      {"measurement": "stoichiometry N", "setting": "[2]", "result": 1.01}
    ]},
    {"substance": "human Polι UBM2 P692A (residues 674–715) (domain or fragment)", "values": [
      {"measurement": "pKd", "setting": "[2]", "result": 3.76}
    ]}
  ]
}
